Assay results published in publication PMC11387628.

How the values were obtained:
GFP-WIPI2b S68A (human) = experiment: co-IP; GFP-Trap of GFP-WIPI2b WT or mutants from lysates of transfected HEK293A or HEK293A WIPI2 KO cells (full medium or 2 h EBSS), 2 h at 4 °C; washed in TNTE wash buffer (50 mM Tris pH 7.5, 300 mM NaCl, 5 mM EDTA, 0.1% Triton-X100); endogenous ULK1, ATG13 and ATG16L1 detected by western blot
GFP-WIPI2b S68D (human) = experiment: as above

Substance: endogenous ATG16L1 (from UniProt Q676U5 1-607) (natural protein)
- percent reduction of binding compared to WIPI2b WT (GFP-WIPI2b S68A (human)): 30%
- percent reduction of binding compared to WIPI2b WT (GFP-WIPI2b S68D (human)): > 60%
